Data from paper PMC11030525.

Assays:
FKBP4, mouse = FKBP4, mouse (UniProt P30416); assay: mCherry antibody affinity purification (IP) with SILAC LC-MS; conditions: E14 ESCs; AA mutant in light media, EE mutant in heavy media; representative spectrum; mCherry EE:AA = 1.08 in the same panel
AHA1, mouse = AHA1, mouse (UniProt Q8BK64); assay: as above; conditions: E14 ESCs; AA mutant in light media, EE mutant in heavy media; representative spectrum; mCherry EE:AA = 1.08 in the same panel
Sequence of AHA1, mouse (Q8BK64 whole entry): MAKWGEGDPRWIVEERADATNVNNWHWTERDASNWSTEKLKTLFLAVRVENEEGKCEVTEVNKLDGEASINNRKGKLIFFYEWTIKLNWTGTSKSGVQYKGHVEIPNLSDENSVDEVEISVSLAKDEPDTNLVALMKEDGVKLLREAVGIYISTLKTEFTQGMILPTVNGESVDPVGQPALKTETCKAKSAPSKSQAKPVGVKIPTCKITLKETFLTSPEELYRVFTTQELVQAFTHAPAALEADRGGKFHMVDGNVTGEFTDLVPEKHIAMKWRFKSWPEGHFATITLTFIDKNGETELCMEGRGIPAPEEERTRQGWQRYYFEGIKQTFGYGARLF

Sequence of mCherry-HSP90β-Wild type, P08238 S226E; S255E (P08238 whole entry S226E/S255E): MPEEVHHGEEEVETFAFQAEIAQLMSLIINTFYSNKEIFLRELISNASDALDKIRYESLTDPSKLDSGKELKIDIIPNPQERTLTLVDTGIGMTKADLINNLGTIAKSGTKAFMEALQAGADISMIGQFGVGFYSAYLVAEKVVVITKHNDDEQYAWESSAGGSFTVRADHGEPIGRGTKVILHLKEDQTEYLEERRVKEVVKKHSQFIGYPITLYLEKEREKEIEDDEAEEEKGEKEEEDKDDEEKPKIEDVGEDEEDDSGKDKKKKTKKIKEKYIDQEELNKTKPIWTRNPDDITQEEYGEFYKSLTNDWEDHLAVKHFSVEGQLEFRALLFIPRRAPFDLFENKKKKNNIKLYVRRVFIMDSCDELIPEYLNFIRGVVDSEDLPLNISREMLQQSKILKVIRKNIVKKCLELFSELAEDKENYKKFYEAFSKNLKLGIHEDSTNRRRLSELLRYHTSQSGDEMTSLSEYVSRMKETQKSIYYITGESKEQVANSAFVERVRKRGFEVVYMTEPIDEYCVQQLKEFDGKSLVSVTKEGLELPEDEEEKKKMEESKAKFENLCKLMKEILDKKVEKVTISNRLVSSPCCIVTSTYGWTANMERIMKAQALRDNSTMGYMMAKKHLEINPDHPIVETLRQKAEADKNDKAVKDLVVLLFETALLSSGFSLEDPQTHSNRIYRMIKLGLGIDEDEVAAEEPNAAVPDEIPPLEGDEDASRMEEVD
Sequence of FKBP4, mouse (P30416 whole entry): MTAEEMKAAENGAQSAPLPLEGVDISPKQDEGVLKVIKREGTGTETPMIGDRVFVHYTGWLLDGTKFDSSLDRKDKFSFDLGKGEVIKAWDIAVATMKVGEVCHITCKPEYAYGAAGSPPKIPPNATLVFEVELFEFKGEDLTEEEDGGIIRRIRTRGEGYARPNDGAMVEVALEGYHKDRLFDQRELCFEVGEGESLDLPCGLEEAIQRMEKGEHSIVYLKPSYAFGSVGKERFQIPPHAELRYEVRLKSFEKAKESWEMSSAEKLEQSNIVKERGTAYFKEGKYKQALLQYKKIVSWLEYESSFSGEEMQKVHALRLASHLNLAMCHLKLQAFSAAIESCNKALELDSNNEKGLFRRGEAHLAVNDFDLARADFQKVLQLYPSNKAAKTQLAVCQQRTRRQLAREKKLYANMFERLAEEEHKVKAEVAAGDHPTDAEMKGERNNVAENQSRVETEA

“mCherry-HSP90β-Wild type, P08238 S226E; S255E” was tested. Which other: SILAC ratio EE:AA (FKBP4, mouse) did it give?
Its other: SILAC ratio EE:AA is 1.74.

And the other: SILAC ratio EE:AA (AHA1, mouse)?
Its other: SILAC ratio EE:AA is 1.69.
